Measured values: the domain aggregation screens of Martell et al. (2025)

Assay: soluble fraction after stress (log2 fold change); higher = more stays soluble; pooled small domains, quantitative proteomics
Conditions: stress: pH 4
Procedure, shortened: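 Small protein domains from pooled custom libraries were exposed to pH 4, then quantified with high-throughput quantitative proteomics. The fold change in how much of each domain remains soluble is read as aggregation propensity. It is given as log2, with higher values meaning more stayed soluble.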

Sequence | soluble fraction (log2)
HMSGPSDRDLFDEALALLSGSGREPDYHEARIRLGTLVEQFPESKWAEGAKALLSMLDRVSALQV | -0.673
HMNEMEWVAKLIDQLPERERMILQLREIEQYEFDQIASLMEIPEGTVRVYLSRIRKKIKKQFIEIQSH | -0.405
HMSVETSDLLPLIEQVLSLNPDKVKEYQNGKKGLLGFFMGQIKQTAGVAIDVGTLKPLLEDALHKDL | -1.06
HMRAAKSEDTRTRLIEGGMALFGQKGYNATGIKDITDAAGVPKGSFYNYFASKEDFGAEIIHSY | -0.0559
HMGPLDIAQLKSDFLGGDAQLARRAWDQLATKAGDEGRDFLISSLGSSDPQIRNRVALGIHES | -0.152
HMGGTATDYYNQGRTAYDVGDYNGALMNFQEAVRLDPRYGEAYYGLGKAYEALNMQNQALDAYLSAI | -1.46
HMSKIRSEINKFSSDADKPILEWLFERYHWASQWRFVARFSEQRYGVLSYEINRVWEPTIEGRALYDQL | -1.45
HMSTVISPLPGNIIKVLVPEGKSVKRGDTILTIESMKMENSIKAAYDGVVKKIYVQQAQIVMQGDPLFDL | -1.05
HMNEQKVSSLLTPRQLAFIDEYLIDFNGAQAAIRAGYSHKTAGPQAARLLVNVNISRMIAERIEARNK | -1.22
HMEDAFLQRLISIIEANLSNVDFNVKMLAEQLNMSQPTLYRKVKQRSELSVIDMIRSIRILSLIHISEPTR | -0.919
HMAMMTKQRLIQLIHIARNDLQMDEDTYRQMLQGLTGKASTKGMDTPQLNRVLESMKKKGFRIK | ≥ 0.43
HMNTVAKELATQATQAKKRAFLDAYAETGIIKRAAEIAGIERKSHYLWLEKDPEYVEAFKSAGEQ | -0.0116
HMRRVGTALNRSHKVSYGESIQSIAARYNVNPTMLREYNRLKPEATITPGQILRIPPATIAS | -0.195
HMKLTKPKLIQLIHIAKSKLNMDELSYRVLLDNLTGKTSTTKMTVGELLKVYESMKDKGFKPQV | 0.104
HMPFESEMKHWIHLFAHELNLKVSDKYTQKIIEIFGNNFSEIFNEMSKSSLVSSNEKDLLNALEKSGNIH | -0.862
HMKDYQGNILIQSEGDRIDKFLFKYFNSFSRTKIKNHIINGNILVNDKNTIPAYVLKINDKISYDLSTSVK | -0.877
HMQRADYLILYYIKMQAEQHPDSKVYLADLAAVMGLKVTELSKAVEKLQDNGFVAWKTDREAGRTYVELS | -0.89
HMEKYIVEAEEQGKRLDMYISSKDEELTRTSAQRLIEQGDILVNNKKVKVAYKVSEGDIIAVEKQ | 0.00594
HMVPLSPRFFDIFRKRKDLTRQNVDVYFRDHPTEITAFERYIKGLVSQSYIPAERADALLLVASQYKAK | 0.0777
HMITMWYYKKDGNIIGPASARKIASMRELGIITDSTPVSRKRNAKNWETFGGLSEKINLESSQWD | 0.0852
HMNYSIVNVGFNNKSLFLRSAPGYSASRLLLPFATERAFVRETLSNGWSRVIVRGTEGYLPTEYVAD | -0.553
HMSGEPKNERQIEVPDVTKKSIREANNILTSEGLRLRIEGTGLAVSQKPAAGTMVEPDTIITVTFQAP | -0.0704
HMIAVLKQGVSKQQVENLITWFRSRGLDVHISEGKFQTIIGLIGDTSKVDIDLLNGLEIIESVKRI | -0.832
HMFKITNTLNKTAEVYLTIPENKKGKGKIMISVNGAFHELEAMTENDKIQSGAVVKVVRIENDNILIVET | -1.96
HMLKGTVKWFNESKGFGFIEQEEGKDVFVHYSAITGSGFKTLNEGDKVQFEIVDGPKGPAAANVSK | -0.927
HMLPLGSNEYETAVIKHLASGVQDADEIQRLTGIDQTSLNTALTMLELAGTIRPLGNNHWTL | 0.22

Sequence | soluble fraction (log2)
HMPATTMMVVVDRDLPYGHVLTDRDVRLETRRATSPGASVAFTSIDPVLGQSLTRPLGAGTPVGRADLR | -0.151
HMKGWPDREQAEKIWQQGIDYAIEHHTMSPQIVKEYIFHTQGIARSAALIAARLPDMDTEKAYVLGLLHD | 0.0199
HMSAEVMLRRLIDENDPSSENARYILAVMLERKKILAPVDVKNEKKSKMLFYEHQKTGEAFIVRDP | -0.17
HMGNLEENFRLKAGTEDGAWEFIRYHLGKLPVVNESNGTAIVNAERQAFLLFDRMVAFHIQRGVMVPLSAP | -0.159
HMKNQIGFKIKNARRKASISQADLSAKLGISSSYLNLIESGKRNVNVDLLLKVSDVLNIELKDLSK | -0.437
HMESIEGMYKISLLRKQGNAYVIFEDENKEAVEHIFPEKPTALELGTKVIEMFEYKERYDGLI | -0.781
HMFTEPQKLVKRILNMLGHRYDDASIQARSDFQASNNYHKVQVKKKRESMEEYTAWLEEMYDAYRIN | 0.0985
HMPLDYNELRSISPKAARQAILQILAANKGNVSATAKLLGVSRKTVYKAMHKKASGNLDDTSRAPK | 0.13
HMGLASEVKTEDVLNEEKYDFEPDLIGNNNEAIYQNKQTGSYVLFDRNQNKVTKVLSAGEVLNHSKYNE | 0.342
HMKIVFGHVKWFDIDKGFGFLVLEDEGGDVLLHANVLKNFGRTSVSEDTKIEFEFLETDKGRQVSTIYNIL | -2.19
HMGSGVNVTVNGKRMNLPLKDDHIIFVDIFNYIDFDLSKPKGSIVLKLNGRDAGYTDPIKDGDVIDIYWQ | -0.686
HMGLPLETVVTHATKLEIVRDGRVSGSIGLSAGVKVDVIALEGDNLQVRYRSLSGRVPVAHTGLAALA | -0.533
HMIKLIKKDTNISELKMSKMPWDVMLYGKPYQVVSIKGYVHTIGGRRGENDLWMYPRDESPTYENLIEFQ | 0.279
HMDMQNIQKGLSAIEPGRTFSREEYYAAIQNGSEMLLKEDALAYSLRKSLSDGDIVRVSWNQYAIP | -0.909
HMLLPGEELRVMIIQEGKEYGQGVGYLDDGTMVVVEDGQRALNRTENVVVTKVLQTTAGRMIFAK | -0.975
HMYESAMSDLHARIMSSDDPHGEIYKMLTQSGPEAKYIQDMYNETSIDRGLHPDDDFEDIIDAMVAELDD | -1.24
HMVTGSIYERKGIYYAIVSYYVDGRRKQKSVSTGLSVKGNKRRALEFLENLKRTYETKESMENMD | ≥ 0.43
HMTTGREGLIGAVGTVRQAIAPEGYVFVEGELWRAKSPAGPLEPGTTVRVIAIDGLTLTVMPAE | -0.564
HMVKNLRKLREELGLTQQRLAELTGISKSRIYSYESLDREPDIAGLITLADFFSVSIDYLVGK | -1.01
HMVSDSAELSAFVADVIKENAQAVADYKGGKTNVFGWLMGQIIKKSGGKATPAAAAALLKAELEK | -0.14
HMGTDFRPVFQYVDELVRAGEFTNLKGMIYFTDGRGIFPEKKPDYDAAFVFLDDGYDPPDVPVWAIKLVL | -0.709
HMGGFSVTAEAFDGTPEVGKTVGFTAGSTKIKVEDTKGDATFGTILEKETVGFGEGKYTYFYIGL | -0.276
HMKLTTRQTEIINIVKAEQPISGEKIAQNLGLSRATLRNDLSILTMTGLLDAKPKVGYFYTGQ | 0.0805
HMIDYTDTSAVKDSAAVAGRVREMINEGVPIADVNAFIRSASENGLISDDSARRLRYMNDSR | ≥ 0.43
HMGQERAVPDVKGQSFDMAQGNISRAGLKAVVTDSVYDSYARPGTVVEQSPIPLAKIKRGGTVYLTLVA | -0.0752
HMKDYKSALQELIQSGDKRVISYHTLKETGPSHNREFEAAVKLDGNIILGVGKGKTKKEAEQNAAHEALKK | 0.165

Sequence | soluble fraction (log2)
HMPMNISDIIKQAREELGMTQEDLAERLEVSRQAVSKWELGASVPSPENLRLLEELLGVELPAP | -0.635
HMDVADITGTRKAAILLLTMDEELSKELLKEFERHEIEAIGKEIANIKYIPENIVKQVHSEFLKNINKS | -0.752
HMTPEPVREALTFQEGRVFALAAKNMTNAEIAQSLSLKLKTVENYMSIIYQKLALKNRYELLVYARKSGV | -0.117
HMISAEPVGEDLFKVAFPFLGGSTVFEKTIEQFIEEHPSKRIDHIYTVPNPLRLKKADALIFYIITEEK | -1.12
HMGKTIIQLATDYLIKNMQPKSLHDIESYVLTRKKIKKSSIGAILLSKPNIFGRTEDGLFGLRIWNNFQYT | -0.14
HMDPNFKYIIRIANSDVSGEQKLAYALTSIRGIGERTSNAIIQKLGLDSTQLAGKLTDKNVEDIESA | -0.0403
HMVAPKTEEQQKMFLESIVTKRQAETLIEKYPNIVQDIIDGTDNVDLANLKGIGEHTYNLIKEKVLSNY | -0.159
HMENISVESKMKLLLKSLKTRDFISLPELVLKGESKLAISVILVAALELNRKGYIEVVQAEQFGEIYFKNT | 0.0399
HMQNLETVEEIKELALNYLDKYQPSKKSLQVYLFRKAIDAQSNSVEKSEILKKIETVLTDLEEQGILNDAL | -0.139
HMDDIVPHSTKNHIIKTFLSLMNSLDIITDKNKKSLNQNVHIIFNKFNFSKKEANLFIGVLNRIQKALK | 0.134
HMDPTVSGQTGSVVREIRPGVPGEVELSVPLYGIRRWQAMADGILAEGTRVTVIQAEGVRLSVRPV | -0.251
HMEREQNIAQGREVVQRELKRLGLTDVFTVEDIGRALKFDDIDEFLSKVGFGDIQTAKITGAIALMQQALR | -0.84
HMPEEGPSEDGNSFTAKFKLGSDVQGAMEQADAAAKAGLQDAGKGTGQITSRAQVGGYIYSTATA | 0.22
HMAGASQAVKAQLRLREMILAGELPGGARIAELTLVEKLGVSRTPIRAALMRLEQEGLLHRLPGGGYAVRT | -0.41
HMRRARVAGKGHFTGEDAMAVYRELEALFGETETLYLPGHRPFEAVLSKLALIGVPEKNTVPYTFAFVET | -1.09
HMNNQMTFSKFLNEVDAGRVVEVEIQGNNIKGVLADGNRFNTFSPNYPNLVEKLSDKGVSITAAPK | 0.205
HMETWKLYKRAYKKYYARYMKGNMSEADFKAWATQAAADRDAAIEQITPEIDAALKAQIIEQLREKLNR | -0.134
HMGSLVVVPNLVGQNYDEVKLSTKYSDFEIVQKNTEYSEAPAGQIIKQDPEAGTKVKKHSTINVTVSK | -0.287
HMDLDIGSVLQASRGEKKISLRQLAERTGLTASMLSQIERNLVNPSINTLKVIAAALEIPMYKFFMG | -0.583
HMTARPTLEKLKYMIHEAGITENSLKVIVATKGHYGLDADISTYSDDFITRWIIPNWTKIVQTISNNK | 0.0354
HMHPNPLTEQEIAVLKGIAQGLSNQEIADQLYLSNGTVRNYVTNILSKLDAGNRTEAANIAKESGW | -0.279
HMKDLIGEAKAKELALGHAKLSASDVTFIHVELDWENGRRVYDVEFYSGAKEYDYEIDAKTGEIVSFDY | 0.00222
HMKEQYDLNDREQQFISLVANGLNNKEIAETLFLSEGTVRNYLSNLLDKLGLRDRTQLAIFFYQHL | -1.74
HMAEKEYYYATDALNLRQGPGMEHTVKGEVVLGERVALLGLEGKWAKIQNAQGTTGYVFSAYLAPS | -0.147
